{
  "source": "paper PMC9177958",
  "about": "“Structures of nonsense-mediated mRNA decay factors UPF3B and UPF3A in complex with UPF2 reveal molecular basis for competitive binding and for neurodevelopmental disorder-causing mutation” (Nucleic Acids Research, 2022)",
  "assay_in_all_cases": "fluorescence anisotropy; FA: 5 nM probe, 150 mM NaCl, 25 mM HEPES pH 7.45, 1 mM TCEP, 20 C; EMSA: 250 nM probe, 25 mM HEPES pH 7.45, 2 mM MgCl2, 150 mM NaCl, 0.5 mM TCEP, on ice",
  "key": {"[1]": {"target": "T1, UPF3B-WT (human, UniProt Q9BZI7-2 1-470)", "T1 sequence": "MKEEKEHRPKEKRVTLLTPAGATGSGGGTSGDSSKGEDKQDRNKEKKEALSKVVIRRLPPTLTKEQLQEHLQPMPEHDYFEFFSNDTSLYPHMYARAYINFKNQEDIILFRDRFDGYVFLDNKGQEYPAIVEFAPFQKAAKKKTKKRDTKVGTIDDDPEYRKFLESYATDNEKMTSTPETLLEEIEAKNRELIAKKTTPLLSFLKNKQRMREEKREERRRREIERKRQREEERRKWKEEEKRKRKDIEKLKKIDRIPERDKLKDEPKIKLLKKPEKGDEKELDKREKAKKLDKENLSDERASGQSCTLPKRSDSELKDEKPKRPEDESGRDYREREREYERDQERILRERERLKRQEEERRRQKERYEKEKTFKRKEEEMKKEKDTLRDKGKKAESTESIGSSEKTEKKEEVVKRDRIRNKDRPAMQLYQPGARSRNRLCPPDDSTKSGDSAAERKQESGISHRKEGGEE", "details": "protein: recombinant, tags: 6xHis removed by TEV"}, "[2]": {"target": "UPF2-MIF4GIII (UniProt Q9HAU5 761-1054)", "sequence (Q9HAU5 761-1054)": "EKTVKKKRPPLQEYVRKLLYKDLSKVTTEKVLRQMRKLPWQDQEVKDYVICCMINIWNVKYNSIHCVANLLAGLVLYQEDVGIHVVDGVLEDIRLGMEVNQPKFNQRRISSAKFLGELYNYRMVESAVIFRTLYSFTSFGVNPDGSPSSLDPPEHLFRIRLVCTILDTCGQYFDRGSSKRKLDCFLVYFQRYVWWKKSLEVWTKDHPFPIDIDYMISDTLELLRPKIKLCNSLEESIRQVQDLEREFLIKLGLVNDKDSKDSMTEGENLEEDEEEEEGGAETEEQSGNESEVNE", "details": "protein: recombinant; tags: 6xHis removed by TEV; label: 5' HEX; single strand; 24-mer hairpin RNA"}, "[3]": {"target": "UPF3B-41-143 (RRM-L);UPF2-MIF4GIII (human;human?, UniProt Q9BZI7;Q9HAU5 41-143;761-1054, |)", "sequence (Q9HAU5 761-1054, one chain of several)": "as the sequence (Q9HAU5 761-1054) above", "details": "protein: recombinant;recombinant; tags: 6xHis removed by TEV;6xHis removed by TEV; copies: 1;1; label: 5' HEX; single strand; 24-mer hairpin RNA"}, "[4]": {"target": "T2, UPF3B-146-417 (human, UniProt Q9BZI7-2 146-417)", "T2 sequence": "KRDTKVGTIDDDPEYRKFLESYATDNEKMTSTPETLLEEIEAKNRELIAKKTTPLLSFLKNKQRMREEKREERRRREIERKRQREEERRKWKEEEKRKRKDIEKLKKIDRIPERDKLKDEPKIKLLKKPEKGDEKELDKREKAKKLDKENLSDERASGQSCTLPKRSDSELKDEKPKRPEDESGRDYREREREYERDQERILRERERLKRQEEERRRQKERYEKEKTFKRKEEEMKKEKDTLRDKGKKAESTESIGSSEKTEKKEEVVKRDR", "details": "protein: recombinant; tags: 6xHis removed by TEV; label: 5' HEX on strand 1; blunt"}, "[5]": {"target": "T3, UPF3B-146-256 (human, UniProt Q9BZI7 146-256)", "T3 sequence": "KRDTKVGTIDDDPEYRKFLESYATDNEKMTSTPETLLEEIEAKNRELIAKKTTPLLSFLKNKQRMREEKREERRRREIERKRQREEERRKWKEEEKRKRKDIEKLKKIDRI", "details": "protein: recombinant; tags: 6xHis removed by TEV; label: 5' HEX on strand 1; blunt"}, "[6]": {"target": "T4, UPF3B-41-262 (human, UniProt Q9BZI7 41-262)", "T4 sequence": "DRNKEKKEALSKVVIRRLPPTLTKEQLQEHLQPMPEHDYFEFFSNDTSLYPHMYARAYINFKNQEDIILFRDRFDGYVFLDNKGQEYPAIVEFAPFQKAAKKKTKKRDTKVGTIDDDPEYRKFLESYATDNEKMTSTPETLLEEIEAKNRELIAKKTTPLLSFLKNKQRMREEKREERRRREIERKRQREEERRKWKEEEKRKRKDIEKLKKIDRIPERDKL", "details": "protein: recombinant; tags: 6xHis removed by TEV; label: 5' HEX on strand 1; blunt"}, "[7]": {"target": "T5, UPF3B-41-214 (human, UniProt Q9BZI7 41-214)", "T5 sequence": "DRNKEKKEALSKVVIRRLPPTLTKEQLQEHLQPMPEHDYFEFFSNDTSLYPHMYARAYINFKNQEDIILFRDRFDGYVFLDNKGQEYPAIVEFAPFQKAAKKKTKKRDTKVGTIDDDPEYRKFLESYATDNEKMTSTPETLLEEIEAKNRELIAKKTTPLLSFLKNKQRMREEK", "details": "protein: recombinant; tags: 6xHis removed by TEV; label: 5' HEX on strand 1; blunt"}, "[8]": {"target": "T6, UPF3B-41-143 (RRM-L) (human, UniProt Q9BZI7 41-143)", "T6 sequence": "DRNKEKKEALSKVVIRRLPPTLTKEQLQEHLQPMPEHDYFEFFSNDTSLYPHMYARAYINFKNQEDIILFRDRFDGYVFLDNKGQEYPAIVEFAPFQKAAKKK", "details": "protein: recombinant; tags: 6xHis removed by TEV; label: 5' HEX on strand 1; blunt"}},
  "data": [
    {"binder": "CACUGAUCUGACGCUGCACCUGGG (ssRNA)", "note": "[24mer ssRNA]", "values": [
      {"measurement": "Kd", "setting": "[1]; label: 5' HEX, single strand, 24-mer hairpin RNA", "value": 30, "unit": "nM"},
      {"measurement": "Kd", "setting": "[2]", "value": "~700", "unit": "nM"},
      {"measurement": "Kd", "setting": "[3]", "value": 620, "unit": "nM"}
    ]},
    {"binder": "24mer dsRNA (dsRNA) RNA 1: CCCUGAGCUGACGCAGCACCUGGG RNA 2: CCCAGGUGCUGCGUCAGCUCAGGG", "values": [
      {"measurement": "Kd", "setting": "[1]; label: 5' HEX on strand 1, blunt", "value": 15, "unit": "nM"},
      {"measurement": "Kd", "setting": "[4]", "value": 280, "unit": "nM"},
      {"measurement": "Kd", "setting": "[5]", "value": 1800, "unit": "nM"},
      {"measurement": "Kd", "setting": "[6]", "value": 37, "unit": "nM"},
      {"measurement": "Kd", "setting": "[7]", "value": 1200, "unit": "nM"},
      {"measurement": "Kd", "setting": "[8]", "value": 9200, "unit": "nM"}
    ]}
  ]
}
